Data set [1] deals with human apo-NFU1 (human) (UniProt Q9UMS0). Briefly: SAXS; apo-NFU1:ISCU complex isolated by SEC, dialysed against HNT buffer, 2-8 mg/mL, 298 K; molecular mass by the Vc approach. (In gel filtration, larger molecules generally elute earlier.)
Data set [2] has the same target. As to the kind of experiment: ITC; Nano ITC, 25 °C, HNT buffer; syringe 0.8 mM ISCU, cell (169 μL) 0.03 mM NFU1; 20 injections of 2.5 μL; fitted to a 1:1 binding mode.
Data set [3] has as its target T1, human ISCU (human), Q9H1K1.
T1 chain: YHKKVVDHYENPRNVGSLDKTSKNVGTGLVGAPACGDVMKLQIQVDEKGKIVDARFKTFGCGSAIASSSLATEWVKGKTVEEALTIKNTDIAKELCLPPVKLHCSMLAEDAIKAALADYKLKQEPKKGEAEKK
Briefly: SEC; anaerobic; mixture of [U-15N]-apo-NFU1 and ISCU[4Fe-4S] incubated 30 min, HiLoad Superdex 200 PG, HNT buffer, 1 mL/min; fractions analysed by SDS-PAGE. As to conditions: remark: other sources report otherwise.

Data set [4] deals with the molecule itself. The description is as above.

The results in this text go back to paper PMC7261492, “ISCU interacts with NFU1, and ISCU[4Fe-4S] transfers its Fe-S cluster to NFU1 leading to the production of holo-NFU1” (Journal of structural biology, 2020).

As usually defined, the stoichiometry N is a count of units in the complex or per binding partner. The term Kd denotes the concentration at which binding is half-saturated.

Turning to “human ISCU (from UniProt Q9H1K1 35-167) (natural protein)”, the stoichiometry N with human apo-NFU1 (human) [1] was 1. Besides, the dissociation constant Kd in the data set with human apo-NFU1 (human) [2] was 1100 nM.

B1: human ISCU, Q9H1K1 35-167 (natural protein)
chain: T1 chain
Regarding B1, in data set [3], the stoichiometry N is 2.

B2: human holo-NFU1 (natural protein, UniProt Q9UMS0 10-254, looked up)
chain: GAAAVAAGLRRRFCHMLKNPYTIKKQPLHQFVQRPLFPLPAAFYHPVRYMFIQTQDTPNPNSLKFIPGKPVLETRTMDFPTPAAAFRSPLARQLFRIEGVKSVFFGPDFITVTKENEELDWNLLKPDIYATIMDFFASGLPLVTEETPSGEAGSEEDDEVVAMIKELLDTRIRPTVQEDGGDVIYKGFEDGIVQLKLQGSCTSCPSSIITLKNGIQNMLQFYIPEVEGVEQVMDDESDEKEANSP
modifications: [4Fe-4S] cluster bound by C195 and C198; two NFU1 chains supply the four cysteine ligands of one cluster
notes: NFU1, human, with both the N-terminal domain (NTD) and the C-terminal domain (CTD); Same chain as m2 with the [4Fe-4S] cluster; trimer of cluster-linked dimers (hexamer, 160 kDa); also called NFU1[4Fe-4S]; hexameric holo-NFU1; source: prepared as described earlier (Cai et al., 2016); in the anaerobic SEC formed by adding ISCU[4Fe-4S] to [U-15N]-apo-NFU1
Regarding B2, the “stoichiometry N” value in data set [4] was 6.
